Laboratory results taken from patent US20100048462A1, “TRUNCATED PTH PEPTIDES WITH A CYCLIC CONFORMATION” (Zealand Pharma A/S, priority 2006, published 2010).
Values belong to the molecule of their own block, whether it stands above or below them. Bridge positions count the residues as written; N and C are the ends. Square brackets hold non-standard residues; d marks the D form. hArg = N=C(N)NCCCC[C@H](N)C(=O)O; Ac5c = NC1(C(=O)O)CCCC1; Dab = NCC[C@H](N)C(=O)O; Aib = CC(C)(N)C(=O)O

Columns and labels:
Saos-2 PTH1R = Saos-2 PTH1R (UniProt Q03431); assay: cell-based or functional assay
CYP2D6 = CYP2D6 (Homo sapiens, UniProt P10635); assay: cell-based or functional assay
CYP2D6, sequence (P10635 whole entry): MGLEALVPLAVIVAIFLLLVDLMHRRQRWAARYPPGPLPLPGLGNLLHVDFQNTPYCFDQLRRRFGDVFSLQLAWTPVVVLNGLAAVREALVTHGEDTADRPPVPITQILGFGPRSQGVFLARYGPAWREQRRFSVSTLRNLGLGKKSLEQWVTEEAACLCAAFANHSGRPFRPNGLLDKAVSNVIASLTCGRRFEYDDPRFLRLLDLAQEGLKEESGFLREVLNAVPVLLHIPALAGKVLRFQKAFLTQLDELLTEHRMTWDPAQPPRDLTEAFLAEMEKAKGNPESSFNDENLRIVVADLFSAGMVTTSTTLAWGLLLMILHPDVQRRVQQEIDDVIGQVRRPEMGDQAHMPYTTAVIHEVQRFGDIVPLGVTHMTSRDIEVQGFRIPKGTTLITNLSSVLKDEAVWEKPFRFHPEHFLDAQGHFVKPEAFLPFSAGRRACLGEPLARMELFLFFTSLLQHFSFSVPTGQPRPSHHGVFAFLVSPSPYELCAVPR

Saos-2 PTH1R, sequence (Q03431 27-593 limits assumed): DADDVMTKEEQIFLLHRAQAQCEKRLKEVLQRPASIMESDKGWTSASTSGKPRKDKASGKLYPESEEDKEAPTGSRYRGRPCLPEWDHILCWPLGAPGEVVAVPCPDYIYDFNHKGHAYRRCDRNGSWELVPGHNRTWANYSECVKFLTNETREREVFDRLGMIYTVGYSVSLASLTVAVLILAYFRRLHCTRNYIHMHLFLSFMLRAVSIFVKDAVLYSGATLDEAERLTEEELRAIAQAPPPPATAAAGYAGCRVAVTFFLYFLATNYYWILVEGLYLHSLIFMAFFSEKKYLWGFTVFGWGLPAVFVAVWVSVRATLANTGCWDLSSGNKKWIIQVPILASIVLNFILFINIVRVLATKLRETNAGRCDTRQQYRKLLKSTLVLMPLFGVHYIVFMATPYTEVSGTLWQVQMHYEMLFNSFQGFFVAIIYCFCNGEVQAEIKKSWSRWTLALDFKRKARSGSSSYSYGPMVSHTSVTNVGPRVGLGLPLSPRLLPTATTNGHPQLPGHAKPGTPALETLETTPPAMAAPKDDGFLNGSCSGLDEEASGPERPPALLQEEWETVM

- Emax, cAMP efficacy assay in Saos-2 cells (24T, trifluoroacetate salt) (relative to control (SEQ ID NO: 32)) (Saos-2 PTH1R): 1.4
- pEC50, cAMP efficacy assay in Saos-2 cells (24T, trifluoroacetate salt) (Saos-2 PTH1R): 6.9 -log(M)
- CYP2D6 activity (% of vehicle), dextrorphan formation rate in human liver microsomes, 10 µM peptide (CYP2D6): 83 % of vehicle
Molecule: H-Ac5c-Val-Aib-Glu-Ile-Gln-Leu-Met-His-Glu-Har-Ala-Lys( )-Trp-Leu-Asn-Asp( )-NH2 (peptide)

- Emax, cAMP efficacy assay in Saos-2 cells (20T, trifluoroacetate salt) (relative to control (SEQ ID NO: 32)) (Saos-2 PTH1R): 0.97
- pEC50, cAMP efficacy assay in Saos-2 cells (20T, trifluoroacetate salt) (Saos-2 PTH1R): 8.1 -log(M)
- CYP2D6 activity (% of vehicle), dextrorphan formation rate in human liver microsomes, 10 µM peptide (CYP2D6): 99 % of vehicle
Molecule: H-Ac5c-Val-Aib-Glu-Ile-Gln-Leu-Nle-His-Gln-Har-Ala-Lys( )-Trp-Leu-Asn-Asp( )-NH2 (peptide)

- Emax, cAMP efficacy assay in Saos-2 cells (18T, trifluoroacetate salt) (relative to control (SEQ ID NO: 32)) (Saos-2 PTH1R): 1.24
- pEC50, cAMP efficacy assay in Saos-2 cells (18T, trifluoroacetate salt) (Saos-2 PTH1R): 7.29 -log(M)
- CYP2D6 activity (% of vehicle), dextrorphan formation rate in human liver microsomes, 10 µM peptide (CYP2D6): 89 % of vehicle
Molecule: H-Ac5c-Val-Aib-Glu-Ile-Glu-Leu-Met-His-Gln-Har-Ala-Lys( )-Trp-Leu-Asn-Asp( )-NH2 (peptide)

- CYP2D6 activity (% of vehicle), dextrorphan formation rate in human liver microsomes, 10 µM peptide (CYP2D6): 79 % of vehicle
Molecule: H-Ser-Val-Ser-Glu-Ile-Gln-Leu-Met-His-Asn-Leu-Gly-Lys( )-His-Leu-Asn-Asp( )-NH2 (peptide)

- CYP2D6 activity (% of vehicle), dextrorphan formation rate in human liver microsomes, 10 µM peptide (CYP2D6): 41 % of vehicle
Molecule: H-Ser-Val-Ser-Glu-Ile-Gln-Leu-Met-His-Asn-Leu-Gly-Lys-His-Leu-Asn-Ser-NH2 (peptide)

- Emax, cAMP efficacy assay in Saos-2 cells (35T, trifluoroacetate salt) (relative to control (SEQ ID NO: 32)) (Saos-2 PTH1R): 1.2
- pEC50, cAMP efficacy assay in Saos-2 cells (35T, trifluoroacetate salt) (Saos-2 PTH1R): 5.09 -log(M)
- CYP2D6 activity (% of vehicle), dextrorphan formation rate in human liver microsomes, 10 µM peptide (CYP2D6): 48 % of vehicle
B1: H-Ac5c-V-Aib-…-NH2 (peptide)
chain: H-[Ac5c]V[Aib]EIQLMHNLGKHLNS-NH2
SMILES: CC[C@H](C)[C@H](NC(=O)[C@H](CCC(=O)O)NC(=O)C(C)(C)NC(=O)[C@@H](NC(=O)C1(N)CCCC1)C(C)C)C(=O)N[C@@H](CCC(N)=O)C(=O)N[C@@H](CC(C)C)C(=O)N[C@@H](CCSC)C(=O)N[C@@H](Cc1c[nH]cn1)C(=O)N[C@@H](CC(N)=O)C(=O)N[C@@H](CC(C)C)C(=O)NCC(=O)N[C@@H](CCCCN)C(=O)N[C@@H](Cc1c[nH]cn1)C(=O)N[C@@H](CC(C)C)C(=O)N[C@@H](CC(N)=O)C(=O)N[C@@H](CO)C(N)=O

- Emax, cAMP efficacy assay in Saos-2 cells (41T, trifluoroacetate salt) (relative to control (SEQ ID NO: 32)) (Saos-2 PTH1R): 0.99
- pEC50, cAMP efficacy assay in Saos-2 cells (41T, trifluoroacetate salt) (Saos-2 PTH1R): 7.19 -log(M)
- CYP2D6 activity (% of vehicle), dextrorphan formation rate in human liver microsomes, 10 µM peptide (CYP2D6): 82 % of vehicle
B2: H-Ac5c-Val-Aib-Glu-Ile-Gln-Leu-Leu-His-Gln-Har-Ala-Dab( )-Trp-Leu-Asn-Asp( )-NH2 (peptide)
chain: H-[Ac5c]V[Aib]EIQLLHQ[hArg]A[Dab]WLND-NH2
modifications: lactam 13-17
SMILES: CC[C@H](C)[C@H](NC(=O)[C@H](CCC(=O)O)NC(=O)C(C)(C)NC(=O)[C@@H](NC(=O)C1(N)CCCC1)C(C)C)C(=O)N[C@@H](CCC(N)=O)C(=O)N[C@@H](CC(C)C)C(=O)N[C@@H](CC(C)C)C(=O)N[C@@H](Cc1c[nH]cn1)C(=O)N[C@@H](CCC(N)=O)C(=O)N[C@@H](CCCCNC(=N)N)C(=O)N[C@@H](C)C(=O)N[C@H]1CCNC(=O)C[C@@H](C(N)=O)NC(=O)[C@H](CC(N)=O)NC(=O)[C@H](CC(C)C)NC(=O)[C@H](Cc2c[nH]c3ccccc23)NC1=O
